Where two headings read alike, the source gives them in different places.

T1: DNA polymerase alpha catalytic subunit POLA1 (334-1462) (human, UniProt P09884 334-1462)
T1 sequence (looked up): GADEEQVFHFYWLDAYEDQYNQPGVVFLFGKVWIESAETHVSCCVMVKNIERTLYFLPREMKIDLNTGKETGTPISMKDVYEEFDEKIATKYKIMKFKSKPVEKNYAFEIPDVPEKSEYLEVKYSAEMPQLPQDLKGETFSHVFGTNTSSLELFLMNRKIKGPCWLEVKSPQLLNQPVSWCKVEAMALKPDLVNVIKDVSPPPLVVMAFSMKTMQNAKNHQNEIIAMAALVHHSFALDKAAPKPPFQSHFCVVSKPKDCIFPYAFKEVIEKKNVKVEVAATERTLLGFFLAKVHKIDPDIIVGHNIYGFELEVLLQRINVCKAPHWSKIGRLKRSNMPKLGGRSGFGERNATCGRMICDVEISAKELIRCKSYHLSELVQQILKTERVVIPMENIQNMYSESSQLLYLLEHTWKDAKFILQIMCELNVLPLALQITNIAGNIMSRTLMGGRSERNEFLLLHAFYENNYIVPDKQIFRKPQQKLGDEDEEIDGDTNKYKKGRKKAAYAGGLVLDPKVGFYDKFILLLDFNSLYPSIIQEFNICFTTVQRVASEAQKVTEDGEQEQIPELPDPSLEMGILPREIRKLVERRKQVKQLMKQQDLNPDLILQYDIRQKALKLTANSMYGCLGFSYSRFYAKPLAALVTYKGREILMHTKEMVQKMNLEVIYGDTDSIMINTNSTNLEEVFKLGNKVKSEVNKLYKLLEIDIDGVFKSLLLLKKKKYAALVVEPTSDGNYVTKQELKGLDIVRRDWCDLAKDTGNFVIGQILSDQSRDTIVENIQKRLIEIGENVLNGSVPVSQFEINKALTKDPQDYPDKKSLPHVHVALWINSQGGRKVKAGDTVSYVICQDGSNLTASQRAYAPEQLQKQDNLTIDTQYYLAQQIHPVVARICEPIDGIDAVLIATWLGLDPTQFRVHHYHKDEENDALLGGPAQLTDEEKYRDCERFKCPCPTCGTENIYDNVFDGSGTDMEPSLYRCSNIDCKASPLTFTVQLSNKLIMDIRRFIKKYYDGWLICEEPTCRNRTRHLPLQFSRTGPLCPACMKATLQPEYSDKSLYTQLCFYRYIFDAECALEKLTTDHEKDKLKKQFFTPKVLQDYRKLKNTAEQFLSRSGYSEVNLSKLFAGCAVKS

B1: DNA polymerase alpha accessory B subunit POLA2 (149-598) (domain or fragment, human, UniProt Q14181 149-598, looked up)
chain: SSFSPSATPSQKYNSRSNRGEVVTSFGLAQGVSWSGRGGAGNISLKVLGCPEALTGSYKSMFQKLPDIREVLTCKIEELGSELKEHYKIEAFTPLLAPAQEPVTLLGQIGCDSNGKLNNKSVILEGDREHSSGAQIPVDLSELKEYSLFPGQVVIMEGINTTGRKLVATKLYEGVPLPFYQPTEEDADFEQSMVLVACGPYTTSDSITYDPLLDLIAVINHDRPDVCILFGPFLDAKHEQVENCLLTSPFEDIFKQCLRTIIEGTRSSGSHLVFVPSLRDVHHEPVYPQPPFSYSDLSREDKKQVQFVSEPCSLSINGVIFGLTSTDLLFHLGAEEISSSSGTSDRFSRILKHILTQRSYYPLYPPQEDMAIDYESFYVYAQLPVTPDVLIIPSELRYFVKDVLGCVCVNPGRLTKGQVGGTFARLYLRRPAADGAERQSPCIAVQVVRI
B2: primase regulatory subunit PRIM2 (1-509) (natural protein, human, UniProt P49643 1-509, looked up)
chain: MEFSGRKWRKLRLAGDQRNASYPHCLQFYLQPPSENISLIEFENLAIDRVKLLKSVENLGVSYVKGTEQYQSKLESELRKLKFSYRENLEDEYEPRRRDHISHFILRLAYCQSEELRRWFIQQEMDLLRFRFSILPKDKIQDFLKDSQLQFEAISDEEKTLREQEIVASSPSLSGLKLGFESIYKIPFADALDLFRGRKVYLEDGFAYVPLKDIVAIILNEFRAKLSKALALTARSLPAVQSDERLQPLLNHLSHSYTGQDYSTQGNVGKISLDQIDLLSTKSFPPCMRQLHKALRENHHLRHGGRMQYGLFLKGIGLTLEQALQFWKQEFIKGKMDPDKFDKGYSYNIRHSFGKEGKRTDYTPFSCLKIILSNPPSQGDYHGCPFRHSDPELLKQKLQSYKISPGGISQILDLVKGTHYQVACQKYFEMIHNVDDCGFSLNHPNQFFCESQRILNGGKDIKKEPIQPETPQPKPSVQKTKDASSALASLNSSLEMDMEGLEDYFSEDS
B3: primase catalytic subunit PRIM1 (1-420) (enzyme, human, UniProt P49642 1-420, looked up)
chain: METFDPTELPELLKLYYRRLFPYSQYYRWLNYGGVIKNYFQHREFSFTLKDDIYIRYQSFNNQSDLEKEMQKMNPYKIDIGAVYSHRPNQHNTVKLGAFQAQEKELVFDIDMTDYDDVRRCCSSADICPKCWTLMTMAIRIIDRALKEDFGFKHRLWVYSGRRGVHCWVCDESVRKLSSAVRSGIVEYLSLVKGGQDVKKKVHLSEKIHPFIRKSINIIKKYFEEYALVNQDILENKESWDKILALVPETIHDELQQSFQKSHNSLQRWEHLKKVASRYQNNIKNDKYGPWLEWEIMLQYCFPRLDINVSKGINHLLKSPFSVHPKTGRISVPIDLQKVDQFDPFTVPTISFICRELDAISTNEEEKEENEAESDVKHRTRDYKKTSLAPYVKVFEHFLENLDKSRKGELLKKSDLQKDF

Holding throughout (test): cryo-EM structure
The target of experiment [1] is T1, DNA polymerase alpha catalytic subunit ….
Experiment [2] shares this target. The source holds these as a separate data set.
The target of experiment [3] is B2.

For B1, the binding result in experiment [1] is reported as “binds”. As to B2, in experiment [2], the binding result is listed as “binds”.

Take B3: the binding result in experiment [1] and in experiment [3] was “binds” throughout.

Values taken from publication doi:10.1101/2023.07.20.549859 (bioRxiv, 2023).
